From the DeepSol protein solubility set

Experiment: soluble on expression in E. coli; label from the status in PepcDB or PDB records

Q: Which “soluble on expression in E. coli” value does the source give for “MNIQKAHDVAPPEWLAQVREPALCPGQIIVDPHHHLWDRQGQLYLLPQFLEDQAGDHRIVSTVYVQGRAMYRAGAHALAPVGETEFARGVAAMCASGRYGETRVCDGIVAHADLTQGDGVERVLQAHVEAGGRHFKGIRHMATWDADPALMNPDVAPPPHLLGETRFRRGFAVLDRMGLVFDAWVFHPQLADVVALASAFPDTTIVLNHLGGILNTGSYAGRREAIRADWLASLRELATCPNVYLKLGGLGMRISGFDYPSRPRPPNSTELAADFAPYMLPAIDLFGPERCMFESNFPVDKRSYTYGVLWNAFKRLAADMSQAERDHLFYQTAAKAYRLNLDHIAADMAGDPLEHHHHHH” here?
A: not soluble

Q: Which “soluble on expression in E. coli” value does the source give for “ATIKDVAKRANVSTTTVSHVINKTRFVAEETRNAVWAAIKELHYSPSAVARSLKVNHTKSIGLLATSSEAAYFAEIIEAVEKNCFQKGYTLILGNAWNNLEKQRAYLSMMAQKRVDGLLVMCSEYPEPLLAMLEEYRHIPMVVMDAGEAKADFTDAVIDNAFEGGYMAGRYLIERGHREIGVIPGPLERNTGAGRLAGFMKAMEEAMIKVPESWIVQGDFEPESGYRAMQQILSQPHRPTAVFCGGDIMAMGALCAADEMGLRVPQDVSLIGYDNVRNARYFTPALTTIHQPKDSLGETAFNMLLDRIVNKREEPQSIEVHPRLIERRSVADGPFRDYRR” here?
A: soluble

Q: With “MSLSAKSSLKEVAELAGVGYATASRALSGKGYVSPQTREKVQAAAKELNYVPNQLAKALREHRSALVGVIVPDLSNEYYSESLQTIQQDLKAAGYQMLVAEANSVQAQDVVMESLISIQAAGIIHVPVVGSIAPEGIPMVQLTRGELGPGFPRVLCDDEAGFFQLTESVLGGSGMNIAALVGEESLSTTQERMRGISHAASIYGAEVTFHFGHYSVESGEEMAQVVFNNGLPDALIVASPRLMAGVMRAFTRLNVRVPHDVVIGGYDDPEWYSFVGAGITTFVPPHEEMGKEAVRLLVDLIENPELPTGDVVLQGQVILRGSSTHEGHHHHHH” as the sequence, how does the “soluble on expression in E. coli” value read?
A: soluble

Q: With “RQLTVLERVAPTITGNLENQTTSIGESIEVSCTASGNPPPQIMWFKDNETLVEDSGIVLKDGNRNLTIRRVRKEDEGLYTCQACSVLGCAKVEAFFIIEGAQEKTNLE” as the sequence, how does the “soluble on expression in E. coli” value read?
A: soluble

Q: With “MTTQVKPIRSFLFVPGNKESMLDKAALAKADALILDLEDSVPPAEKLAARELVARKIPALIAQGQRIWVRINRSAHIYDLDDILAVAQPGVEGVVISKPWGPEDVYMASSMIAEAETRANLPLGSIGLIPLLETARSMQLCYEIAQMPRVVGIVGATAKNADMGRALKFVWTPEGRETEYLKSRVVMAARAAGKQAIGGIWQQIKDLEGLARSSAFDRQLGMSGELALHPMQVETINRTYTPTAEDVAYYQGMIDALDAAQAQGRASVMYDGEHIDIAHVKTAHEVIALARAFDAAAALEHHHHHH” as the sequence, how does the “soluble on expression in E. coli” value read?
A: soluble

Q: With “MAREVKLTKAGYERLMQQLERERERLQEATKILQELMESSDDYDDSGLEAAKQEKARIEARIDSLEDILSRAVILEEGSGEVIGLGSVVELEDPLSGERLSVQVVSPAEANVLDTPMKISDASPMGKALLGHRVGDVLSLDTPKGRREFRVVAIHG” as the sequence, how does the “soluble on expression in E. coli” value read?
A: soluble

Q: With “MSLNVFDKSGQSSGYKLSSTIGKNNTDVNKNDNNSAIYSESAVIVFGYPEYLSNQVITHFSHFGNILEDFEILRSSTGINNNTFRLHANLNALQEGSMSTKLPIFTGEGWVKITYDSPTSALRALKENGTVFTGHLIGCIPYSKSAVEQLALISVDKSDDIGSIDLGQINKSVNEDSRNKGSNGKVYPSLGSVDHIEPINGRQKEANMKSFGTPIINNNQQYLDHSIMAHPRHKLDIQDGKSLFVHNSSHHKTQFLDNIEKKIKEKEANKNESGSWSGRLTNWVFGWDNEGHHHHHH” as the sequence, how does the “soluble on expression in E. coli” value read?
A: soluble

Q: With “QTIRSASDIRDVFINAGIKGEEYDAAWNSFVVKSLVAQQEKAAADVQLRGVPAMFVNGKYQLNPQGMDTSNMDVFVQQYADTVKYLSEKKGGGTGAQYEDGKQYTTLEKPVAGAPQVLEFFSFFCPHCYQFEEVLHISDNVKKKLPEGVKMTKYHVNFMGGDLGKDLTQAWAVAMALGVEDKVTVPLFEGVQKTLIK” as the sequence, how does the “soluble on expression in E. coli” value read?
A: soluble

Q: Which “soluble on expression in E. coli” value does the source give for “MGSDKIHHHHHHASGFTLGKDILSYVAVGDSFTEGLDDPYPDSARFPQGRYRGWADRFAEHLARHVREVRYANLAVRGKLLRQILTEQLPRAVELRPDLVTLCAGGNDILRPGSDPDTLADAFEGAVRQLRDTGADVVIFTGFDTGFQPVMRHLRGKIATYNMHLRGIADRYHCRVVDLWSMKIFQDRRAWSDDRLHLSAEGHRRLALRVCEVMGVPVDEDWNAPWPQEPPAPWHQARQEDLRWARQHLVPWIHRRLTGRSSGDGVRPKRPNLEPLVRR” here?
A: not soluble

Q: Which “soluble on expression in E. coli” value does the source give for “SIRLPAHLRLQPIYWSRDDVAQWLKWAENEFSLRPIDSNTFEMNGKALLLLTKEDFRYRSPHSGDELYELLQHILKQRDHHHHHHHRHD” here?
A: soluble

Q: With “AIGEFMVSLPRMVYPQPKVLTPCRKDVLVVTPWLAPIVWEGTFNIDILNEQFRLQNTTIGLTVFAIKKYVAFLKLFLETAEKHFMVGHRVHYYVFTDQPAAVPRVTLGTGRQLSVLEVRAYKRWQDVSMRRMEMISDFCERRFLSEVDYLVCVDVDMEFRDHVGVEILTPLFGTLHPGFYGSSREAFTYERRPQSQAYIPKDEGDFYYLGGFFGGSVQEVQRLTRACHQAMMVDQANGIEAVWHDESHLNKYLLRHKPTKVLSPEYLWDQQLLGWPAVLRKLRFTAVPKNHQAVRNP” as the sequence, how does the “soluble on expression in E. coli” value read?
A: soluble

Q: Which “soluble on expression in E. coli” value does the source give for “MAHHHHHHMMYSKNDEFNVKKEMDMNLKCDNVNLDIWNTSFLNNETLNEDIFIHIGNKLLKMYYTTNHNIPSETLYSLLYEMKNGYNNVPYHNSIHAAMVTHHCNVLVSNLNTANILRDNELGALFVASLGHDIGHFGRTNIFLKNCCNFLSIIYNDKSILENYHCSYLFNILLKDENNIFKNEDPKCLLALRQQIIELILATDMSKHIKILAQFRIKSIKIKSYIEKNIILCLKMIIKAADLSHNCVDWSEHYQWVKRLVNEFYYEGDELFQMGYKINPLFDRNCHNNFIQIQRTFLKELVYPLIISLKTLDNTSITQDMINNVKRNYSKWTKI” here?
A: soluble

Q: For “MNRIKEVLEEKGIKQTWLAEKLGKSFSIVNSYVCNRRQPSLDILFEIAKILEVDVRVLIGTKENRQKSK”, which “soluble on expression in E. coli” value is on record?
A: not soluble

Q: For “MARDGGVSCLRRSEMMSVGGIGGIESAPLDLDEVHVLAVDDSLVDRIVIERLLRITSCKVTAVDSGWRALEFLGLDNEKASAEFDRLKVDLIITDYCMPGMTGYELLKKIKESSNFREVPVVIMSSENVLTRIDRCLEEGAQDFLLKPVKLADVKRLRSHLTKDVKLSNGNKRKLPEDSSSVNSSLPPPSPPLTISPESSPPLTVSTESSDSSPPLSPVEIFSTSPLSSPIDDEDDDVLTSSSEESPIRRQKMRSPGLD”, which “soluble on expression in E. coli” value is on record?
A: not soluble

Q: Which “soluble on expression in E. coli” value does the source give for “MGDILMHYVRKAHEHEVNEVVKYPHTITNTELEEILVSGEECTVLDVREAAEFAFGHIPSATSMPLGELESLVLDKTKQIYVVCRTGNRSDVACQMLKEKGYTNVKNVIPGMIEWQGNIENLEHHHHHH” here?
A: not soluble

Q: For “MGSDKIHHHHHHVPLLFGTAGVPLSAKERSTEAGVKRVRELQLDAMEVEFVQGVRMGEEKAQKIAQIAVEEKVALSCHGPYWINFNSQEPEKVAASRERLLHSARISKILGVKSVVFHPAFYHQDDPQVVLVRTAGELMKVREILDAEGNDVILRPETTGKPSQLGTLQEVLTLAQAVPGVLPCIDISHLHARSNGRINTYDEFCQVLEAAAESLGDRWVKHVHFHVSGIDYGVKGEKKHLILKESDLRYPELMKAFHTFGVEGLVICESPNLEEDALLLQTTYRTMA”, which “soluble on expression in E. coli” value is on record?
A: not soluble

Q: Which “soluble on expression in E. coli” value does the source give for “MGEYYHATVNGVVEYGAFVDLSEHVSGLIHESTYSGDPDLAVDDDVIVHLSAVRDNGDLSFEFVDPEEYRTEQRSLEHHHHHH” here?
A: not soluble

Q: Which “soluble on expression in E. coli” value does the source give for “MGSDKIHHHHHHVYNEFFHLRTKPFELLPDPDFLYPSKAHRKALAYFEYGLSERSGFILLTGEVGSGKTTLIREMLKRDLGRMVLSKVFNTRVDSTQLVAMINDDFGLETAGRDKMVMLRDLNDFLIDQYAAGRRAVLVIDEAQNLSQELLEEVRMLSNLETDSAKLLQIILVGQPELRDLLRSPALVQLRQRIQVHCHIAPLSQEELREYVLFRLERAGNRDAMEWGEGVFGLMHEATRGIPRLVNILCDYVLLDAYAAGRRSINSAELQDLLAELDFERQFWPVDETSAPAPAAEQQRRTAVRRDASSVARRMMLMLQDLGQRLDVLERGYEKSGPDMLADMAERLGALEKRVTVLAGRVESLHAERMQRGAAPQVQPYRQKPERRKGWFRRVFGGD” here?
A: not soluble

Q: With SKPSKPFNVDDVLKFTFTGEKHHHHHH as the sequence, how does the “soluble on expression in E. coli” value read?
A: soluble

Q: With “MNRYITRGIANNLPNILQHQLWQLVSEREQEQTKDNTLVDYFHIFQFNTHRNQLYIKHKQERPAYVKTQKANINQPININKVYIIREDDVDLSYYIMLLPNEYLEHHHHHH” as the sequence, how does the “soluble on expression in E. coli” value read?
A: soluble

Q: Which “soluble on expression in E. coli” value does the source give for “MRFKAELMNAPEMRRALYRIAHEIVEANKGTEGLALVGIHTRGIPLAHRIARFIAEFEGKEVPVGVLDITLYRDDLTEIGYRPQVRETRIPFDLTGKAIVLVDDVLYTGRTARAALDALIDLGRPRRIYLAVLVDRGHRELPIRADFVGKNVPTSRSEVVKVKVEEVDGEDRVELWEREGA” here?
A: soluble

Q: With “GPGSMHSMVRVGLTNGMVLTGRIVEFDAVTMNMKLDAITDMAVLHPAAGEGCGDSAYETNPAALRCCNSVVVRGCHLRYMDFIDEESDNGRGLQELITAVRVVKPSVPQD” as the sequence, how does the “soluble on expression in E. coli” value read?
A: not soluble

Q: Which “soluble on expression in E. coli” value does the source give for “MGSDKIHHHHHHMEQINHQWLPHLSKEIVEDARGPEFDAYLVALEGWRRGLTLRWHTKDSEAFREIKTWFVDRPGKLFSLRLEEKTHYFFRTRGDKVTNEAVAIGADKEKTKEYLAKAGIPIPEGRRFVAEIEDDEIISYAAEIGYPLVVKPTDGSFGRGVVTNIEDEVTFAEQLRHVRHVLNYKDVIVERHVAGKDYRLYVVGDKVVAAIERIPANVVGNGKQTIQELIEAKNEERQKNPRLISCPIKLDQEMKNHLAIQGYGLDTIPEDGEMVFLTNKSNISIGGDPVDQLDSLPEEVKQLAVQALQAVPQLPHGAVDILYDDKQPVEEGAVVLELNPTAQIGSLVFPMKGIARDVPAAIIDYYFPETKGMNGQKSRFYFDFSDVLEPLVTKTASVTTVSAAPLGEVYGKKYTVTGDVQGIDYHRGLRKQAFERKLSGFVKNLENGNIEVIVMGTDPESVNDFKQAIFEDPERSDVVDVFEESWEEPVKVGFEVKADLKMQVDQLKKMKLELETVQKDLKEAERKNIKYKKSLTWRMTLPFRKTLDVLKYFKRK” here?
A: not soluble

Q: With “MTTCLLDIDQQQSVLGAGYHEPRAYSPYGGMRVVPVSALAFCGQHLDPLTGSYPLGNGHRFYRPSLRRFISPDVLSPFGKGGLNAYAYCQGDPVNFADPSGRFPAIIAPVRNLVTGVINLGISAVKMYRNYRTGRDFALNSGYPASRSGVFTYGTSEHAVARWSVADKVVSAAGGISASLSIGTATARLITPESEVLAWVDFGVASFATVLSAYELYGLATSSAERRYPIQPVAYEIRTGVQPLEHHHHHH” as the sequence, how does the “soluble on expression in E. coli” value read?
A: soluble

Q: For “MKQYGFYVDSSRCSGCKTCQVSCKDNKDLDVGPKLRRVYEYGGGSWVKEGESWHHDTFTYYLSIACNHCDEPVCVSGCPTGAMHKRKEDGLVVVDDSVCVGCRYCEMRCPYGAPQFDTQANVMRKCDGCLDRLENNLRPICVDSCPQRALDFGPVDELRAKYGTENQIAPLPSASFTHPNLIIKPHPKARPTGDTEGAIMNIREVRHA”, which “soluble on expression in E. coli” value is on record?
A: not soluble
